# B1: TPR t1 (parent)
# chain: GACCAAUCUGCCCUCAGAGCUCGAGAACAUCUUCGGAUGCAGAGGAGGCAGGCUUCGGUGGCGCGAUAGCGCCAACGUCCUCAACCUCCAAUGCAUCCCACCACAUGAUGAUGCCUGAAGAGCCUUGGUUUUUUG
# Variants of: B1
# Assay: polymerase ribozyme fitness, log enrichment relative to wild type (log ratio); higher = more active; in vitro selection for triplet polymerase activity
# In short: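 A heterodimeric triplet polymerase ribozyme had each of its subunits mutagenized by PCR into a library, which was transcribed. One round of in vitro selection, done in triplicate, annealed each library with a biotinylated primer, its partner subunit and triplets, then incubated it frozen at −7 °C before gel excision of extended constructs, streptavidin-bead capture and RT-PCR. Fitness is the logarithm of genotype enrichment relative to wild-type enrichment, based on Illumina sequencing of inputs and outputs and inverse-variance-weighted replicate averages. A base-2 logarithm is used, and genotypes were kept only with ≥10 input reads and ≥1 read per output.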
row,Variant,polymerase ribozyme fitness (log ratio)
1,GACCAAUCUGCCCUCAGAGCUCGAGAACAUCUUCGGAUGCAGAGGAGGCAGGCUUCGGUGUCGCGAUAGCGCCAACGUCCCCAACCUCCAAUGCAUCCCAGCACAUGAUGAUGCCUGAAGAGCCUUGGUUUUUUG [G61U U81C C101G],-2.09
2,GACCAAUCUGCCCUCAGAGUUCGAGAACAUCUUCGGAUGCAGAGGAGGCAGGCUUCGGUUGCGCGAUAGCGCCAACGACCUCAACCUCCAAUGCAUCCCACCACAUGAUGAUCCCUGAAGAGCCUUGGUUUUUUG [C20U G60U U78A G113C],-2.3
3,GACCAAUCUGCCCUCAGAGCUCGAGAACAUCUUCGGAUGCAGAGGAGGCAGGCUUCGGUGGCGCGAUAGCGCCAACGUCCUCAACCUCCAAUGCAUCCCACCACAUGAUGAUAGCUGAAGAGCCUUGGUUUUUUG [G113A C114G],-1.96
4,GACCAAUCUGCCCUCAGAGCUCGAGAACAUCUUAGGAUGCAGAGGAUGCAGGCUUCGGUGACGCGAUAGCGCCAACGUCCUCAACUUCCAAUGCAUCCCACCACAUGAUGAUGCCUGAAGAGCCUUGGUAUUUUG [C34A G47U G61A C86U U130A],-3.42
5,GACCAAUCUGCCCUCAGAGCUCGAGAGCAUCUUCGGAUGCAGAGGAGGCAGGCUUCGGUGGCGCGAUAGUGCCAACGUCCUCAACCUCCAAUGCAUCCCACCACAUGAUGAUGCCUGAAGAGCCUUGGUUUUUUG [A27G C70U],-2.05
6,GACCAAUCUGUCCUCAGAGCUCGAGAACAUCUUCGGAUGCAGAGGAGGCAGGUUUCGGUGGCGCGAUAUCGCCAUCGUCCUCAGCCUCCAAUGCAUCCCACCACAUGAUGAUGCCUGAAGAGCCUUGGUUUUUUG [C11U C53U G69U A75U A84G],-1.1
7,GACCAAUCUGCCCUCAGAGCUCGAGAACAUCUUCGGAUGCAGAGGAGGCAGGCUUCGGUGUCGCGAUAGCGGCAACGUCCUCAACCUCCAAUGCAUCCCACCACAUGAUGAUGCCUGAAGAGCCUUGGUUUUUUG [G61U C72G],-0.168
8,GACCAAUCUGCCCUCAGAGCUCGAGAACAUCUUCGGAUGCAGAGGAGGAAGGCUUCGGUGGCGCGAUAGCGCGAACGUCCUCAACCUCCAAUGCAUCCCACCACAGGAUGAUGCCUGAAGAGCCUUGGUCUUUUG [C49A C73G U106G U130C],-2.23
9,GACCAAUCUGCCCUCAGAGCUCGAGAACAUCUUCGGAUGCAGAGGAGGCAGGCUUCGGUGGCGCGAUAGCUCCAACGUCCUCAACCUCCAAUGCAUCCCACCACAUGAUGAUGGCUGAAGAGCCUUGGUUUAUUG [G71U C114G U132A],-2.34
10,GACCAAUCUGCCCUCAGAGCUCGAGAACAUCUUCGGAUGCAGAGGAGGCAAGCUUCGGUGGCGCGAUAGCGGCAACGUCCUCAACCUCCAAUGCAUCCCACCACAUGAUGAUGCCUGAAGAGCCUUGGUUUUUUG [G51A C72G],-2.71
11,GACCAAUGUGCCCUCAGAGCUCGAGAACAUCUUCGGAUGCAGAGGAGGCAGGCUUCGGUGGCGCGAUAGCGCCAACGUCCUCGACCCCCAAUGCAUCCCAGCACAUGAUGAUGCCUGAAGAGCCUUGGUUUUUUG [C8G A83G U87C C101G],-1.58
12,GACCAAUCUGCCCUCAGAGCUCGAGAACAUCUUCGGAUGCAGAGGAGGCUGGCUUCGGUGGCGCGAUAGCGCCAACGUCCUCAACCUCCAAUGCAUCCCACCACAUGAUUAUGCCUGAAGAGCCUUGGUUUUUUG [A50U G110U],-4.06
13,GACCAAUCUGCCCUCAGAGCUCGAGAACAUCUUCGGAUGCAGAGGUGACAGCCUUCGGUGACGCGAUAGCGCCAACGUCCUCAACCUCCAAUGCAUCCCACCACAUGAUGAUGCCUGAAAAGCCUUGGUUUUUUG [A46U G48A G52C G61A G120A],-1.18
14,GUCCAAUCUGCCCUAAGAGCUCGAGAACAUCUUCGGAUGCAGAGGAGGCAGGCUUCGGUGGCGCGAUAGCGCCAACGUCCUCAACCUCCAAUGCAUCCCACCACAUGAUGAUGUCUGAAGAGCCUUGGUUUUUUG [A2U C15A C114U],-6.05
15,GACCAAUCUGCCCUCAGAGCUCGAGAACAUCUUCGGAUGCAGAGGAGGCAGGCUUCGGUGGCGCGAUAGCGCCAACGUCCUCAACCUCCAUUGCAUCCCACCACAUGAUGAUGCUUGAAGAGCCUUGGUAUUUUG [A91U C115U U130A],-2.33
16,GACCAAUCUGCCCUCAGAGCUCGAGAACAUCUUCGGAUGCAGAGGAGGCAGGCUUCGGUGGCGCGAUAGCGCCAACGUCCUCAAACUUCAAUGCAUCCCACCACAUGAUGAUGCCUGAAGAGCCUUGGUUUUUUG [C85A C88U],-2.64
17,GACCAAUCUGCCCUCAGAGCUCGAGAACAUCUUCGGAUGCAGAGGAGGCAGGCUUCGGUGGCGCGAUAGCACCAACGUCCUCAACCUCCAAUGCAUCCUACCACACGAUGAUGCCUGAAGAGCCUUGGUUUUUUG [G71A C99U U106C],-5.44
18,GUCCAAUCUGCCCUCAGAGCUCGAGAACAUCUUCGGAUGCAGAGGAGGCAGGCUUCGGUGGCGCGAUAGCGCCUACGUCCUUAACCUCCAAUGCAUCCCACCACAUGAUGAUGCCUGAAGAGCCUUGGUUUUUUG [A2U A74U C82U],-3.62
19,GACCAAUCUGCCCUCAGAGCUCGAGAACAUCUUCGGAUGCAGAGGAGGCAGGCUUCGGUGGCGCGAUAGCGCCAACGUCCUCAACCUCCAAUGCAUCCCACCUCAUGAUGAUGUCUGAAGAGCCUUGGUUUUUUG [A103U C114U],-4.99
20,GACCAAUGUGCCCUCAGAGCUCGAGAACAUCUUCGGAUGCAGAGGAGGCAGGCUUCGGUGGCGCGAUAGCGCCAACGUCCUCAACGUCCAAUGCAUCCCACCACAUGAUGAUGACUGAAGAGCCUUGGUUUUUUG [C8G C86G C114A],0.194
21,GACCAAUCUGCCCUCAGAGCUCGAGAACAUCUUCGGAUGCAGAGGAGGCAGGCAUCGGUGGCGCGAUAGCGCCAACGUCCCCAACCUCCGAUGCAUCCCACCACAUGAUGAUGCCUGAAGAGUCUUGGUUUUUUG [U54A U81C A90G C123U],0.715

row,Variant,polymerase ribozyme fitness (log ratio)
1,GACCAAUCUGCCCUAAGAGCUCGAGAACAUCUUCGGAUACAGAGGAGGCAGGCUUCGGUGACGCGAUAGCGCCAACGUCCUCAACCUCCAAUGCAUCCCACCACAUGAUGAUGCCUGAAGAGUCUUGGUUUUUUG [C15A G39A G61A C123U],-0.349
2,GACCAAUCUGCCCUCAGAGCUCGAGAACAUCUUCGGAUGCAGAGGAGGCAGGAUUCGGUGGCGCGAUAGCGCCAACGACCUCAACCUCCAAUGCAUCCCACCACAUGAUGAUGCCUGAAGAGCCUUGGUUUUUUG [C53A U78A],0.532
3,GACCAAUCUGCCCUCAGAGCUCGAGAAGAUCUUCGGAUGCAGAGGAGGCAGGCUUCGGUGGCGCGAUAGCGCCAACGUCCUCAACCUCCAAUGCAUCCCACCACAUGAUGAUGUCUGAAGAGCCUUGGUUUUUUG [C28G C114U],-5.68
4,GACCAAUCUGCCCUCAGAGCUCGAGAACAUCUUCGGAUGCAGAGAAGGCAGGCUUCGGUGGCGCGAUAGCGCCAACGUCCUCAACCUUCAAUGCAUCCCACCACAUGAUGAUGCCUGAAGAGCCUUGGUUUUUUG [G45A C88U],-0.289
5,GACCAAUUUGCCCUCAGAGCUCGAGAACAUCUUCGGAUGCAGAGGAGGCAGGCUUCGGUGGCUCGAUAGCGCCAACGUCCUCAACCUCCAAUGCAUCCCACGACAUGAUGAUGACUGAAGAGCCAUGGUUUUUUG [C8U G63U C102G C114A U125A],-6.46
6,GACCAAUCUGCCCUCAGAGCUCGAGAACAUCUUCGGAUGCAGAGGAGGCAGGCUUCGGUGGCGCGAUAGCGCAAACGUCCUCAACCUCCGAUGCAUCCCACCACAUAAUGAUGCCUUAAGAGCCUUGGUUUUUUG [C73A A90G G107A G117U],-6.33
7,GACCAAUCUGCCCUCAGAGCUCGAGAACAUCUUCGGAUGCAGAGGAGGCAGGCUUCGGUGGCGCGAUAGCGCCAACCUCCUCAACCUCCAAUGCCUCCCACCACAUGAUGAUACCUGAAGAGCCUUGGUUUUUUG [G77C A95C G113A],-2.42
8,GACCAAUCUGCCCUCAGAGCUCGAGAACAUCUUCGGAUGCAGAGGAGGCAGGCUUCGGUGGCGCGAUAGCGCCAACGUCCUCAACCUCCAAUGCAUCCCACCACAUGGUGAUGCCUGAAGAGCCGUGGUUUUUUG [A108G U125G],-2.24
9,GACCAAUCUGCCAUCAGAGCUCGAGAACAUCUUCGGAUGCAGACGAGGCAGGCUUCGGUGGCGCGAUAGCGCCAACGUCCUCAACCUCCAAUGCAUCCCACCACAUGAUGAUGCCGGAAGAGCGUUGGUUUUUUG [C13A G44C U116G C124G],-2.72
10,GACCAAUCUGCCGUCAGAGCUCGAGAACAUCUUCGGAUGCAGAGGAGGCAGGCUUCGGUGGCGCGAUAGCGCCAACGUCCUAAACCUCCAAUGCAUCCCACCACAUGAUGAUGCCUGAAGAGCCUUGCUUUUUUG [C13G C82A G128C],-3.69
11,GACCAAUCUGCCCUCAGAGCUGGAGAACAUCUUCGGAUGCAGAUGAGGCAGGCUUCGGUGGCGCGAUAGCGCCAACGUCCUCAACCUCCAAUGCAUCCCACCACAUGAGCAUGCCUGAAGAGCCUUGGUUUUUUG [C22G G44U U109G G110C],-5.8
12,GACCAAUCUGCCCUCAGAGCUCGAGAACAUCUUCGGAUGCAGAGGAGGCAGGCUUCGGUGCCGCGAUAGCGCCAACGUCAUCAACCUCCAAUGCAUCCCAACACAUGAUAAGGCUUGAAGAGCCUUGGUUUUUUG [G61C C80A C101A G110A U112G C115U],-8.21
13,GACCAAUCUGCCCUCAGAGCUCGAGAACAACUUCGGAUGCAGAGGAGGCAGGCUUCGGUGGCGCGAUAGCGGCAACGUCCUCAACCUCCAAUGCAUCCCACCACAUGAUGAUGCCUGAAGAGCCUUGGUUUUUUG [U30A C72G],-6.04
14,GACGAAUCUGCCCUCAGUGCUCGACAACAUCUUCGGAUGCAGAGGAGGCAGGCUUCGGUGGAGCGAUAGCGCCAACGUCCUCAACCUCCAAUGCAUCCCACCACAUGAUGUUGCCUGAAGAGCCUUGGUUUUUUG [C4G A18U G25C C62A A111U],-6.22
15,GACCAAUCUGCCCUCAGAGCUCGAGAACAUCUUCGGAUGAAGAGGAGGCUGGCUUCGGUGGCGCGAUAGCGCCAACGUCCUCAACCUCCAAUGCAUCCCACCACAUGAUGAUGCCUGAAGAGCCUUGGUUUUUUG [C40A A50U],-1.94
16,GACCUAUCUGCCCUCAGAGCUCGAGAACAUCUUCGGAUGCAGAGGAGCCAGGCUUCGGUGGCGCGAUAGCGCCAACGUCCUCAACCUCCAAUGCAUCCCACCACAUGAUGAUGCCUGAAGAGCCUUGGUUUUUUG [A5U G48C],-2.24
17,GACCAAUCUGCCCUCAGAGCUCGAGAAUAUCUUCGGAUGCAGAGGAGGCAGGCUUCGGUGUCGCGAUAGCGCCAACGUCCUCAACCUCCAACGCAUCCCACCACAUGAUGAUGCCUGAAGAGCCUUGGUUUUUUG [C28U G61U U92C],-2.53
18,GACCAAUCUGCCCUCAGAGCUCGAGAACAUCUUCGGAUGCAGAGGAGGCAGGCUUCGGUGGCCCGAUAGCGCCAACGUCCUCAACCUCCAAUGCAUCCCACCACAUGAGGAUGCCUGAAGAGCCUUGGUUUUUUG [G63C U109G],-3.42
19,GACCAAUCUGCCCUCAGAGCUCGAGAACAUCUUCGGAUGCAGAGGAGGCAGGCUUCGGUGGCGCGAUAGGGCCAACGUCCUCAACCUCCAAUGCAUCCCACCACAUGAUGAUGCCUGAAGGGCCUUGGUUUUUUG [C70G A121G],-0.69
20,GACCAAUCUGCCCUCAGAGCUCGAGAACAUCUUCGGAUGCAGAGGAGGCAGGCUUCGGUGGAGCGAUAGCGCCAACGUCCUCAACAUCCAAUGCAUCUCACCACAUGAUGAUGCCUGAAGAGCCUUGGUUUUUUG [C62A C86A C98U],-3.12
21,GACCAAUCUGCCCUAAGAGCUCGAGAACAUCUUCGGAUGCAGAGGAGGCAGGCUUCGGUGGCGCGAUAGCGCCAACGCCCUCAACCUACAAUGCAUCCCACAACAUGAUGAUGCCUGAAGAGCCUUGGUUUUUUG [C15A U78C C88A C102A],-5.8
